This series is described as follows: yeast display, Sf9 membrane polyspecificity reagent, FACS + sequencing; frameworks hold sequencing errors. A digest of the protocol: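 Galactose-induced (36–48 hours) yeast carrying a synthetic nanobody display library were exposed to 10% biotinylated, detergent-solubilized Sf9 membrane reagent at 4 °C for 1 hour. FACS followed streptavidin microbead enrichment, using low and high (top ~1%) gates for expression (anti-HA) and reagent binding (streptavidin). Colony PCR, MiSeq 2 × 250 sequencing and CDR-length filtering followed. Labels for polyreactivity reflect the gate of origin.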
For the sequence “QVQLVESGGGLVQAGGSLRLSCAASGSIFGKYVMGWYRQAPGKERELVAALTFGGGSTYYADSVKGRFTISRDNAKNTVSLQMNTLKPEETAVYYCAAKSYDDRLYRRPRDYWGQGTQVTLSS”, the “polyreactivity (PSR sort gate)” value is reported as “high polyreactivity”.

In the case of “QVQLVESGGGLVQAGGSLRLSCAASGSIFGLNALGWSRQAPGKERELVAGITWSGGSSTYYADSVKGRFTISRDYAKNTVYLQMNSLKPEDTAVYNCAARRVFIPYYVRFYYWGQGTQVTVSS”, the “polyreactivity (PSR sort gate)” value is “high polyreactivity”.

As for “QVQLVESGGGLVQAGGSLRLSCAASGSIFGLNAMGWYRQAPGKEREFVAAIDKNGAGTYYADSVKGRFTISRDNAKNTVYLQMNSLKPEDTAVYYCAAEYRSYGWYGYVVEYDYWGLGTQVTVSS”, the “polyreactivity (PSR sort gate)” value was “high polyreactivity”.

Regarding “QVQLVESGGGLVQAGGSLRLSCAASGSIFGLNAMGWYRQAPGKERELVAAIDIIGGSTYYADSVKGRFTISRDNAKNTVYLQMNSLKPEDTAVYYCAAEADFWRFVEYDYWGQGSQVTVSS”, the “polyreactivity (PSR sort gate)” value is on record as “low polyreactivity”.

Consider “QVQLVESGGGLVQAGGSLRLSCAASGSIFGLNAMGWYRQAPGKERELVAAINSDGDTYYADSVKGRFTISRDNAKNTVCLQMNSLKPEDTAVYYCAALQRRDHNGDYWGQGTQVTVSS”, for which the “polyreactivity (PSR sort gate)” value is “low polyreactivity”.

“QVQLVESGGGLVQAGGSLRLSCAASGSIFGLYAMGWYRQAPGKERELVAAISSRGSSTYYADSVKGRFTISRDNAKNTVYIQMNSLKPEDTAVYYCNAYPFSRSVQLRDYWGQGTQVTVSS”: the “polyreactivity (PSR sort gate)” value is listed as “low polyreactivity”.

Turning to “QVQLVESGGGLVQAGGSLRLSCAASGSIFGLYAMGWYRQAPGKERELVAAITASDGSTYYADSVKGRFTISRDNAKNTVYLQMNSLKPEDTAVYYCNADAYSGYFLFDYWGQGTQVTVSS”, the “polyreactivity (PSR sort gate)” value is “low polyreactivity”.

Regarding “QVQLVESGGGLVQAGGSLRLSCAASGSIFGLYGMGWYRQAPGKERELVAAISSGGTTNYADSVKGRFTISRDNAKNTVYLQMNSLKPEDTAVYYCAARYSRGAYIYYGWYGYGYWGQGTQVTVSS”, the “polyreactivity (PSR sort gate)” value is recorded as “low polyreactivity”.

“QVQLVESGGGLVQAGGSLRLSCAASGSIFGNKAMGWYRQAPGKERELVAASSNDGDNSYYADSVKGRFTISRDKAKNTVYLQMNSLKPEDTAVYYCAADYVGVTSVRYDYWGQGTEVTVSS”: the “polyreactivity (PSR sort gate)” value is “low polyreactivity”.

Turning to “QVQLVESGGGLVQAGGSLRLSCAASGSIFGNNAMGWYRQAPGKERELVAAISGSGGTRYADSVKGRFTISRDNAKNTVYFQLNSLKPEDTAVYYCSADDSWGGFHSPKAIGYDYWGQGTQVTVSS”, the “polyreactivity (PSR sort gate)” value is “low polyreactivity”.

On to “QVQLVESGGGLVQAGGSLRLSCAASGSIFGNYVMGWYRQAPGKERELVAAITSDGSTYYADSVKGRFTISRDNAKNTVYLQMNSLKPEDTAVYYCNAVYEGLQSRWYKGGLYSFDYWGQGTQVTVSS”, for which the “polyreactivity (PSR sort gate)” value is given as “low polyreactivity”.

As for “QVQLVESGGGLVQAGGSLRLSCAASGSIFGPNPMGWYRQAPGKERELVAAISWTGGRTYYADSVKGRFTISRDNAKNTVYLQMNSLKPEDTAVYYCAAARYLSGGYEKYDYWGQGTQVTVST”, the “polyreactivity (PSR sort gate)” value is given as “low polyreactivity”.

Consider “QVQLVESGGGLVQAGGSLRLSCAASGSIFGPYAMGWYRQAPGKERELVAAISRGSRTNYADSVKGRFTISRDNAKNTVYLQMNSLKPEDTAVYYCAARYVWRSTHHRGSTYDYWGQGTQVTVSS”, for which the “polyreactivity (PSR sort gate)” value was “high polyreactivity”.

On to “QVQLVESGGGLVQAGGSLRLSCAASGSIFGPYAMGWYRQAPGKERELVATINRGVTTYYADSVKGRFTISRDNAKNTVYLQMNSLKPEDTAVYYCAARTYAKRPGYYWGQGTQVTVSS”, for which the “polyreactivity (PSR sort gate)” value is reported as “high polyreactivity”.

Take “QVQLVESGGGLVQAGGSLRLSCAASGSIFGPYAMGWYRQAPGKEREVVAAINSGGSTNYADSVKGRFTISRDNAKNTVYLQMNSLKPEDTAVYYCNAADERSQGWVGYDHWGQCTQVTVSS”: the “polyreactivity (PSR sort gate)” value is “low polyreactivity”.

For the sequence “QVQLVESGGGLVQAGGSLRLSCAASGSIFGQYAMGWYRQAPGKEREYVAAISWRGTSTYYADSVKGRFTISRDNAKNTVYLQMNSLKPEDTAVYYCAGRYVKPSRYKYNYWGQGTQVTVSS”, the “polyreactivity (PSR sort gate)” value is given as “high polyreactivity”.

As for “QVQLVESGGGLVQAGGSLRLSCAASGSIFGRNAMGWYRQAPGKEREFVAAISQRGGRTYYADSVKGRFTISRDNAKNTVYLQMNSLKPEDTAVYYCAATYTRVPNRFYYWGQGTQVTVSS”, the “polyreactivity (PSR sort gate)” value is “high polyreactivity”.

In the case of “QVQLVESGGGLVQAGGSLRLSCAASGSIFGRNAMGWYRQAPGKERELVAAISSRSDRTYYADSVKGRFTISRDNAKNTVYLQMNSLKPEDTAVYYCAARYGSSQNGYKSDYWGQGTQVTLSS”, the “polyreactivity (PSR sort gate)” value is reported as “high polyreactivity”.

Take “QVQLVESGGGLVQAGGSLRLSCAASGSIFGRNAMGWYRQAPGKERELVARISSRGGSTYYADSVKGRFTISRDNAKNTVYLQLISLKREDTALYYCAAEGGDRYALYTFYTWGQGTQVTVSS”: the “polyreactivity (PSR sort gate)” value was “high polyreactivity”.

With “QVQLVESGGGLVQAGGSLRLSCAASGSIFGRNAMGWYRQAPGKERELVAVISKRSGNTYYADSVKGRFTISRDNAKNTVYLQMNSLKPEDTAVYYCNAVDQKLLRYDYGGQGTQVTVSS”, the “polyreactivity (PSR sort gate)” value is “high polyreactivity”.

In the case of “QVQLVESGGGLVQAGGSLRLSCAASGSIFGRNAMGWYRQAPGREREFVATITSRGGRTYYADSVKGRFTISRDNAKNTVYLQMNSLKPEDTAVYYCAADTYISTLKKYRLGDYWGQGTQVTVSS”, the “polyreactivity (PSR sort gate)” value is listed as “low polyreactivity”.

With “QVQLVESGGGLVQAGGSLRLSCAASGSIFGRNTMGWYRQAPGKERELVAAIDSSGGSTYYADSVKGRFTISRDNAKNTVYLQMNSLKPEDTAVYYCAAESRYATKSGYGLVLYYYWGQGTQVTVSS”, the “polyreactivity (PSR sort gate)” value was “high polyreactivity”.

Regarding “QVQLVESGGGLVQAGGSLRLSCAASGSIFGRYAMGWSRQAPGKERELVAAISRGGSTNYADSVKGRFTISRDNAKNTVYLQMNSLKPEDTAVYYCNRKPYYVSSTRYDYWGQGTQVTVAS”, the “polyreactivity (PSR sort gate)” value is “high polyreactivity”.

For the sequence “QVQLVESGGGLVQAGGSLRLSCAASGSIFGRYAMGWYRQAPGKEREFVAAINRSTGSTYYADSVKGRFTISRDNAKNTVYLQMNSLKPEDTAVYYCAARSHSPGYNRRIRGYWGQGTQVTVSS”, the “polyreactivity (PSR sort gate)” value is listed as “high polyreactivity”.

Turning to “QVQLVESGGGLVQAGGSLRLSCAASGSIFGRYAMGWYRQAPGKERELVASINWNSGSTYYADSVKGRFTISRDNAKNTVYLQMNSLKPEDTAVYYCAAAALGYYGYWGQGTQVTVSS”, the “polyreactivity (PSR sort gate)” value was “low polyreactivity”.

On to “QVQLVESGGGLVQAGGSLRLSCAASGSIFGRYAMGWYRQAPGTERELVAAISSGGITYYADSVKGRFTISRDNAKNTVYLQMNSLTPEDTAVYYCAVKYLSWYAKYDSWGQGTQVTVSS”, for which the “polyreactivity (PSR sort gate)” value is “high polyreactivity”.

In the case of “QVQLVESGGGLVQAGGSLRLSCAASGSIFGRYGKGWYRQAPGKERELVAAITSGTRTNYADSVKGRFTISRDNAKITVYLQMNSLTPEDTAVYYSAKQSYRRLPNTPYNYWGQGTQVTVSS”, the “polyreactivity (PSR sort gate)” value is reported as “low polyreactivity”.

Take “QVQLVESGGGLVQAGGSLRLSCAASGSIFGRYGMGWYRQAPGKERELVAAITSGTRTNYADSVKGRFTISRDNAKNTVYLQLNSLKPEDTAVYYCNALRLRGNYEYGYWGLGTQVTVSS”: the “polyreactivity (PSR sort gate)” value was “low polyreactivity”.

“QVQLVESGGGLVQAGGSLRLSCAASGSIFGRYTMGWYRQAPGKERELVAAINRSGGSTSYADSVKGRFTISRDNAKNTVYLQMNSLKPEDTAVYYCNRARSVPQFYGTYGFGYDYWGQGTQVTVSS”: the “polyreactivity (PSR sort gate)” value is listed as “low polyreactivity”.

With “QVQLVESGGGLVQAGGSLRLSCAASGSIFGRYTMGWYRQAPGKERELVAAISWGGGSTYYADSVKGRFTISRDNAKNTVYLQMNSLKREDTAVYYCDADTYWAIDPIYDYWGQGTQVTVSS”, the “polyreactivity (PSR sort gate)” value was “low polyreactivity”.

These data come from the nanobody polyreactivity screen of Harvey et al. (2022).
